# From the supplement of paper PMC9170038
# Test system: MS2 coat protein
# Test: apparent KD of MS2 coat protein; designed switch direction (-1 OFF switch, 1 ON switch): -1; higher = weaker reporter binding
# Outline: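 Stalled E. coli RNA polymerase transcribed designed RNA switches on Illumina chips, which were then titrated with SNAP-549-labelled MS2 coat protein, doubling from 0.7 or 1.5 nM to 3 µM. Steps lasted from 0.8–1.5 h at the lowest concentration to 10–20 min at the highest. The apparent KD is each design's median over clusters of curve-fitted normalised fluorescence.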
# [1] = input ligand: microRNA oligo, concentration not stated
# [2] = Eterna round: R95, input ligand: microRNA oligo, concentration not stated
# [3] = Eterna round: R95, input ligand: FMN 200 uM
# [4] = Eterna round: R95, input ligand: none
Sequence,apparent KD of MS2 coat protein (input ligand: FMN 200 uM) [nM],apparent KD of MS2 coat protein [1] [nM],apparent KD of MS2 coat protein (input ligand: none) [nM],apparent KD of MS2 coat protein [2] [nM],further results
"CCAUAUAGGCGAGGAUAUACGCACCACUAACUAGUAGAAGGCGCACAUGAGGAUCACCCAUGUGAUUUCUCAAUAUUAUACAUC [Prohibition 72 - Jieux - Exclusion NG 1] (Eterna round: R96, puzzle: Exclusion NG 1)",174,107,157,,
"UACCUGAGGCUUUGCUUUAGGCUUACAUGAGGAUCACCCAUGUAGGAUAUGGUAGGCAAAGCUUACCAGAAGGACAUGGAAAUU [Mat - Exclusion NG 3 - Mod of JL - D21] (Eterna round: R96, puzzle: Exclusion NG 3)",,13.2,,,
"AUUGUAUAGGAAGGAUAUAGAAUAUUAUUUUAACAUGAGGAUCACCCAUGUAACCUUAUGUGUAGCUAGAAGGUCCAUUUAUUA [Title] (Eterna round: R96, puzzle: Exclusion NG 2)",,90.2,,,
"UUAAAUCAUGUAGGAUAUGCUUUGCAAAGCGAGGCAGAAGGACAUGAGGAUCACCCAUGUGCUAGCGUCCGAGAACGGAUGCAA [Mat - Exclusion NG 1 - Mod of JL - D64] (Eterna round: R96, puzzle: Exclusion NG 1)",503,41.6,46.6,,
CUUUUGUGAGGAUAUCAGGUGUGCUAGCGUACUGGUACAUCUGAGAAGGCACAUGAGGAUCACCCAUGUUUCUU [JL-ex4-3.19 Brourd mod] (puzzle: Exclusion 4),,,,27.1,
"AUUAAAUAAGGAUAUACAUGAGGAUCACCCAUGUGUAGCAAGGUGUUGCGAUCCGCAAGUAGAAGGUGUAUAAU [Eternabot (L2) Solution 2] (Eterna round: R97, puzzle: Exclusion 3)",49.6,,32,,
"GUCCUGGACUAUCACAAGCACAUGAGGAUCACCCAUGUCAUGGGUGGGUCACUAAGUACGGCUACUGCUCGUCUUAU [Cac Sensor turn off var1 sub8] (Eterna round: R97, puzzle: Sensor, turn-off variant 1)",436,,495,,
"CGCUGGGCAGGAUAUGUUCUUGAGCACUUGAGGAUCACCCAAGUCAUCAAGAACUCAGGCACAGAAGGGUUUAUGG [salish99_ex5_r4_017] (Eterna round: R97, puzzle: Exclusion 5)",10.5,,13.4,,
AAUAACAGAGGAUAUACUAUUUUAUGUGUUUAUUGUUUUGAACAUGAGGAUCACCCAUGUAGAAGGCUGAAUGA [JMF 67] (puzzle: Exclusion 2),,,,25.8,
"UACAUGAGGAUCACCCAUGUUUUAUCAUGUGUAAUAAUAAUGUAGGAUAUGUAUUAUUUAUUUUAACAGAAGGACAAUAAUAAA [JMF's solution 1] (Eterna round: R96, puzzle: Exclusion NG 3)",279,265,362,,
"UUGUUAUAUGUAGGAUAUGCAUAUUAUUAUUAUGCAGAAGGACAUGAGGAUCACCCAUGUAUAUUAUUAUUAUAUGUUAUAUAU [Title] (Eterna round: R96, puzzle: Exclusion NG 1)",,19.5,,,
"GGUACUAACACGAUAGUGUUAGUACUAUAAGCUUGUGUUACAUGAGGAUCACCCAUGUCCUCAUAGGCUCGUCUUAU [Mat - Sensor v3 - Turn-off var 2 - D86] (puzzle: Sensor v3, turn-off variant 2)",,,,30.8,apparent KD of MS2 coat protein [3]: 169 nM; apparent KD of MS2 coat protein [4]: 166 nM
CUUCGACAUGAGGAUCACCCAUGUCAGGAUAUUGUGUAUCGGGUGUUGGACGGAUAGGCAAGAAGGGAUGUGUG [LRO-Excl1-05] (puzzle: Exclusion 1),,,,27.8,
"AGUGUGUGGCAGGAUAUUCUAAUGAUUAGGAGGGAAGAAGGGUCUACAUGAGGAUCACCCAUGUAAGCGGUUGA [Ex6 #39] (Eterna round: R97, puzzle: Exclusion 6)",135,,38.3,,
"UCGUUGUGAGGAUAUAUAUGCAGUAAUCCUUUAAAUUUAUAACUUGAGGAUCACCCAAGUAGAAGGCGCGACGU [JR_Ex2_Sub056] (Eterna round: R97, puzzle: Exclusion 2)",160,,30.2,,
CUGUCCCAAGGAUAUACAUCAGUCCCAGGGUGCCGCAUAAGACAUGAGGAUCACCCAUGUAGAAGGUGGAGACC [Esaranre] (puzzle: Exclusion 2),,,,82.1,
"GCAGCGUAUGUAGGAUAUCGGUCAGUUUCUGAUCGAGAAGGACAUGAGGAUCACCCAUGUAAAUUACCGUCUUUGACGGGCUGC [JL ENG1 3.68] (Eterna round: R96, puzzle: Exclusion NG 1)",20.5,14.1,18.1,,
"GACCGGACGUGGUCUGGUAACAUGAGGAUCACCCAUGUAGGUCUAAGAACAUGCCUUUUGCACGCUCGUCUUAUAUA [JR_SV3TOV1_Sub063] (puzzle: Sensor v3, turn-off variant 1)",,,,38.2,apparent KD of MS2 coat protein [3]: 54.7 nM; apparent KD of MS2 coat protein [4]: 63.8 nM
